Changes are numbered by the printed parent chain.
B1: ADI-41171 (antibody, V domains shown)
VH: EVQLVESGPGLVKPSQTLSLTCTVSGGSISSGGDYWSWVRQRPGKGLEWIGYIYNSGSGYYNPSLKNRVSMSMHTSRNQFSLRLSSVTAADTAFYYCARDPFYRSGGIHYFDYWGQGALVTVSS
VL: DIVLTQTPGTLSLSPGEGATLSCRASPSVGSTSLAWYQQKPGQAPRLLIYGASSRATGIPDRFSGSGSGTDFTLTISRLEPEDFAVYYCQQDGGLPITFGLGTRLEIK
B2: ADI-41160 (antibody, V domains shown)
VH: QVQLVQSGAEVKKPGSSVKVSCKASGGTFSSYPIIWVRQAPGQGLEWMGRIIPILGIASYAQKFQGRVTITADKSTSTAYMELSSLRSEDTAVYYCARNSDFYYGMDVWGQGTTVTVSS
VL: QSALIQPASVSGSPGQSITISCTGTSSDVGGYNYVSWYQHHPGKAPKLMIYDVSNRPSGISNRFSGSKSGNTASLTISGLQAEDEADYYCSSYTSSSLYVFGTGTKVTVL
B3: ADI-41182 (antibody, V domains shown)
VH: QVQLVQSGAEVKKPGESLKISCQGSGYSFTSYWIGWVRQMPGKDLEWMGIIYPSDSDTRYSPSFQGQVTISVDKSINTAYLQWTSLKASDTAMYYCARCDGAVYWYFDLWGRGTLVTVSS
VL: EIVLTQSPATLSVSPGERVTLSCRASRSVSSHLAWYQQKPGQAPRLLMYGASTRATGIPARFSGSGSGTEFTLTISSLQSEDFGVYYCQQYNNWPPALTFGGGTKLEIK
B4: ADI-41173 (antibody, V domains shown)
VH: QVQLVQSGAEMKKPGSSAKVSCKASGGTLSSYAINWVRQAPGQGLEWMGGIIPIFGTTKYAPKFQDRVTITVDESTSTAYMELSSLRSEDTAVYYCSRESSTWDVAHYFDYWGQGTLVTVSS
VL: DIVMTQTPSAISASVGDRVTITCRASQGISNYLAWVQQKPGKVPKRLIYGASSLQSGVPSRFSGSGSGTEFTLTISSLQPEDFATYYCLQHNSYPYTFGQGTKVEIK
B5: ADI-41170 (antibody, V domains shown)
VH: EVQLLESGGGLIQPGGSLRLSCAASGFTFNNYVMSWVRQAPGKGLEWVAAISSSGVSTYYAASVKGRFTISRDNSKNMLYVQLNSLRAEDTAVYYCAKETGSYYYFDSWGQGTLVTVSS
VL: ETTLTQSPSTLSGSVGDRVTITCRASESISSWLAWYQQKPGKAPKLLIYKASNLESGVPSRFSGSGSGTEFTLTISSLQPDDFATYYCQQYNSYLITFGQGTRLEIK
B6: ADI-41154 (antibody, V domains shown)
VH: QVQLQQWGAGLSKPSETLSVTCAVYGGSLSGHYWSWFRQPPGKGLEWIGEIDHSGSTTYNPSLKSRVTISVDTSKNQFSLKLTSVTAADTAMYYCARATRYNYGYTFDYWGQGTLVTVSS
VL: DIPLTQSPSSLSASVGDRVTITCRASQIISSYLNWYQQKPGKAPKLLIYAASTLQSGVPSRFSGSRSGTDFTLTISSLQPEDFASYYCQQSYIIPFTFGPGTKVEIK
B7: ADI-41183 (antibody, V domains shown)
VH: QVQLQESGAGLVKPSETLSLTCGVYGESFSGHSWSWIRQPPGRGLEWIGEINQSGTTKYNPSLRSRVTISVDRSKNEFSLKVSSVTAADTAVYFCARYFRSFYTIGPDYYYMDVWGKGTTVTVSS
VL: EIVLTQSPSSLSASVGDRVTITCRASQNINNYLNWYQQKPGKAPRLLIYAASSLQSGVPSRFTGSGSGTDFTLTIRSLQSEDFATYYCQHSYSSSLLTFGGGTKVDIK
B8: ADI-41185 (antibody, V domains shown)
VH: QVQLQQWGAGLLKPSETLSLTCAVYGGSFSSYYYSWIRQPPGKGLEWIGEINQSGSTNYNPSLKSRVTISVDTSKNEFSLKLSSVTAADTAVYYCARIVREFNTRWYDYYYMDVWGKGTTVTVSS
VL: DIRVTQSPATLSLSPGERATLSCRTSQSISSSYLAWYQQKFGQAPRLLIYGASSRATGIPDRFSGSGSGTDFTLTISRLEPEDFAVYYCQQYGISPPMYTFGQGTKVEIK
B9: ADI-41169 (antibody, V domains shown)
VH: EVQLVESGAEVKKPGESLKISCEAFGYSFTSYWIGWVRQVPGRGLEWIGVIYPGDSDIRYTPSFRGQVTISADRSISTAYLQWNNLKASDTAMYYCARPGRDINYYHSRDYGALDIWGQGTTVTVSS
VL: DIQLTQSPDSLAVSLGERVTINCKSSQSFLYSSNNKNYLAWYQQKPGQPPKLLIYWASVRESGVPDRFSGSGSGTDFTLTISSLQAEDVAVYYCQEYYSPPMFTFGQGTKVEIK
B10: ADI-41163 (antibody, V domains shown)
VH: QVQLVQSGGGVVQPGRSLRLSCAASGFPFHSYAMHWVRQAPGKGLEWVAVIWYEGSEKHYADSVQGRFTISRDNSKNMLYLQMNNLRVADTAVYYCARRGAWGFDIWGQGTTVTVSS
VL: DIVMTQTPLSLPVTPGEPASISCRSSQSVLHSTGYNSLDWYLQKPGQSPQLLIFLGSNRASGVPDRFSGSGSGTDFTLKISRVEAEDVGVYYCMQGLQTPYTFGQGTKVEIK
B11: ADI-41175 (antibody, V domains shown)
VH: EVQLLESGGGVVQPGRSLRLSCATSGFTFSSYGMHWVRQAPGKGLEWVAVIYYEGSNKYYGDSVKGRFTISRDNSKSTLYLQMNRLRAEDTAVYYCARRPAGGFDYWGPGTLVTVSS
VL: B10 VL with D1E, T7S, S28N, V29L, H31N, T33N, S37Y, F54Y, G96A, V109L
B12: ADI-41162 (antibody, V domains shown)
VH: EVQLVQSGAEVKKPGSSVKVSCKASGVTGGTFSSYAISWVRQAPGQGLEWMGGIMPMFGTTNYAQKFQGRVTITADKSTSTAYMELSSLRSEDTAVYYCARDYRDFSPHLDYYYMDVWGKGTTVTVSS
VL: DIRLTQSPGTLSLSPGERATLSCRASQSVSTSYLAWYQQKPGQAPRLLIYGASNRATGIPDRFSGSGSGTDFTLTISRLEPEDFAVYYCQQYGRTSWTFGQGTKVDIK
B13: ADI-41179 (antibody, V domains shown)
VH: QVQLVQSGAEVKKPGSSVKISCKASGGTFSSHPISWVRQAPGQGLEWMGRIVPIFGIANYAQKFQGRVTMIADKSTNTAYMELSNLRSEDTAVYYCANPVYDSSGFQWGQGTLVTVSS
VL: QPVLTQPRSVSGSPGQSVTISCTGTSGDGGFYNYVSWYQQHPGKTPKLMIYDVDQRPSGVPDRFSGSKSGNTASLTISGLQAEDEADYYCCSYPGNPLYVFGTGTKVTVL
B14: ADI-41166 (antibody, V domains shown)
VH: EVQLVQSGAEVKKPGASVKVSCKTSGYTFTGDYLHWVRQAPGQGLEWMGRLNPKSGGTVYAQRFQGRVTMTGDTSVTTAYMQLTRLRSDDTAIYYCARGIPVSGPVSIDYWGQGTLVTVSS
VL: QSVLTQPASLSGSPGQSITISCTGTSSDVGGYGYVSWYQQHPGKAPKLMIYDVANRPSGVSHRFSGSKSGNTASLTISGLQADDEADYYCSSYTRSNTVVFGGGTKLTVL
B15: ADI-41155 (antibody, V domains shown)
VH: QVQLQESGPGLVKPSETLSLTCTVSGGSIGNNFYYWGWIRQPPGKGLEWIGSIYYSGTTYDNPSLKSRVTISVEPSKNQFSLKLSSVTAADTAVYHCARRYCDSTRCYEAFDIWGQGTTVTVSS
VL: SYELTQPPSASGTPGQRVTISCSGSSSNIGSNYVSWYQQLPGTAPKLLIYKNDQRPSGVPDRFSGSKSGTSASLAISGLRSEDEAEYYCAAWDDSLSGFYVFGTGTKVTVL
B16: ADI-41186 (antibody, V domains shown)
VH: EVQLLESGAEVKKPGESLKISCKGSGYSFSSYWIAWVRQMPGKGLEWMGIIYPSDSDTKYSPSFQGQVTISADKSISTAYLQWSSLKASDTAMYYCARQAGIQRPLDYWGQGTLVTVSS
VL: EIVMTQSPATLSVSPGERATLSCRASQSVRSNLAWYQQKPGQAPRLLIYDASTRATGISARFSGSGSGTEFTLTISSLQSEDFAVYYCQQFHNWPPYTFGQGTKVEIK
B17: ADI-41161 (antibody, V domains shown)
VH: EVQLVESGGGLVQPGGSLRLSCAASGFTFSTFEFNWVRQAPGKGLEWLSYISSDDTTRYYADSVKGRFTISRDNAKNSLYLQMNSLRAEDTAYYYCVRGGPYDYVWGTYRYFDFWGQGTLVTVSS
VL: QSVLTQPASVSGSPGQSITISCTGTSSDIGGYNYVSWYQQHPGKAPKLMIYDVTNRPLGVSNRFSGSKSGNTASLIISGLQAEDEAEYYCCSYTSSNSLVFGGGTKLTVL
B18: ADI-41184 (antibody, V domains shown)
VH: EVQLLETGGGLVQPGGSLRLSCAASGFTFSSYDMNWVRQAPGKGLEWVSTISGSGGPTYYAGSVKGRFTISRDNSKNTLYLQMNSLRADDTAVYYCAKAQLYDTSGYYLYYFDYWGQGTLVTVSS
VL: DIRMTQSPSSLSASVGDRVTITCRASQRITSYLNWYQQKPGKAPKLLIYAASSLQSGVPSRFSGSGSGTDFTLTISSLQPEDFATYFCQQSYSTSFTFGPGTKVDIK
B19: ADI-41181 (antibody, V domains shown)
VH: QVQLVQSGAEVKKPGSSVKVSCKASGGSFSSYTLNWVRQAPGQGLEWMGRFVPIVGIANYAQKFQGRVTITADKSTSTVYMELSSLRSEDTAVYYCATAPTAYCSGDCYSLFDPWGQGTLVTVSS
VL: QSVLIQPASVSGSPGQSITISCTGISSDVGSYNLVSWYQQHPGKAPKLIIYEVNKRPSGVSNRFSGSKSGNTASLTISGLQAEDEADYYCCSYAVSRTSLYVFGTGTKVTVL

These binders were tested against RSV postfusion F (postF), F deltaFP (Respiratory Syncytial Virus) (assay: BLI, IgG on anti-human IgG sensor, 100 nM antigen).
For B1, the Kd was 4.26 nM.
With B2 the Kd was 0.337 nM.
In the case of B3, the Kd is reported as 0.462 nM.
Binder B4 has a Kd of 0.294 nM.
B5 gave a Kd of 2.64 nM.
B6 gave a Kd of 1.35 nM.
For B7, the Kd was 1 nM.
B8 gave a Kd of 0.809 nM.
B9 was tested, and the Kd was 1.19 nM.
B10 gave a Kd of 0.604 nM.
In the case of B11, the Kd is reported as 1.07 nM.
With B12 the Kd was 0.748 nM.
B13 was tested, and the Kd was 0.342 nM.
B14 gave a Kd of 0.44 nM.
With B15 the Kd was 0.478 nM.
B16 was tested, and the Kd was 0.703 nM.
Binder B17 has a Kd of 0.364 nM.
With B18 the Kd was 0.532 nM.
B19 showed a Kd of 0.936 nM.

These binders were tested against RSV prefusion F (preF), DS-Cav1 (Respiratory Syncytial Virus) (assay: BLI, IgG on anti-human IgG sensor, 100 nM antigen).
With B1 the Kd was 9.8 nM.
In the case of B2, the Kd is reported as 2.41 nM.
B3 showed a Kd of 2.55 nM.
B4 was tested, and the Kd was 0.315 nM.
Binder B5 has a Kd of 5.67 nM.
Work on B6 yielded a Kd of 4.63 nM.
Binder B7 has a Kd of 4.08 nM.
In the case of B8, the Kd is reported as 3.23 nM.
Work on B9 yielded a Kd of 4.94 nM.
B10 was tested, and the Kd was 4.65 nM.
B11 showed a Kd of 4.25 nM.
In the case of B12, the Kd is reported as 4.06 nM.
With B13 the Kd was 0.948 nM.
B14 showed a Kd of 3.15 nM.
B15 was tested, and the Kd was 3.52 nM.
Binder B16 has a Kd of 3.01 nM.
For B17, the Kd was 2.54 nM.
Work on B18 yielded a Kd of 2.85 nM.
Work on B19 yielded a Kd of 1.95 nM.

Each binder was assayed against Respiratory Syncytial Virus fusion glycoprotein (RSV F) on RSV-A2 virus (Respiratory Syncytial Virus subtype A (RSV-A2)) (assay: cell-based or functional assay).
In the case of B1, the Neutralization IC50 (RSV subtype A) is reported as over 25 µg/mL.
For B2, the Neutralization IC50 (RSV subtype A) was over 25 µg/mL.
B3 gave a Neutralization IC50 (RSV subtype A) of over 25 µg/mL.
With B4 the Neutralization IC50 (RSV subtype A) was 0.08 µg/mL.
B5 showed a Neutralization IC50 (RSV subtype A) of over 25 µg/mL.
Work on B6 yielded a Neutralization IC50 (RSV subtype A) of over 25 µg/mL.
In the case of B7, the Neutralization IC50 (RSV subtype A) is reported as over 25 µg/mL.
B8 was tested, and the Neutralization IC50 (RSV subtype A) was over 25 µg/mL.
B9 gave a Neutralization IC50 (RSV subtype A) of over 25 µg/mL.
With B10 the Neutralization IC50 (RSV subtype A) was over 25 µg/mL.
For B11, the Neutralization IC50 (RSV subtype A) was over 25 µg/mL.
For B12, the Neutralization IC50 (RSV subtype A) was over 25 µg/mL.
With B13 the Neutralization IC50 (RSV subtype A) was over 25 µg/mL.
For B14, the Neutralization IC50 (RSV subtype A) was over 25 µg/mL.
With B15 the Neutralization IC50 (RSV subtype A) was over 25 µg/mL.
B16 gave a Neutralization IC50 (RSV subtype A) of over 25 µg/mL.
B17 gave a Neutralization IC50 (RSV subtype A) of over 25 µg/mL.
For B18, the Neutralization IC50 (RSV subtype A) was over 25 µg/mL.
Binder B19 has a Neutralization IC50 (RSV subtype A) of over 25 µg/mL.

Reference: US20260258115A1
